± gives the standard deviation.

Protein stability index data for 36 sequences are collected here from the supplement of paper PMC10567573.

This series in a line: protein stability index of a GFP-peptide fusion (GPS, HEK-293T) (PSI 1-6); higher = more stable. The settings on record: c terminus: a fixed tail appended.
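Also: 24-mer peptide tiles fused after GFP, lentivirally expressed, FACS-sorted into six equal bins by GFP/DsRed ratio, decoded by Illumina sequencing, PSI is the read-weighted mean bin number.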

On to KQAEICQLEEKLEIANEDRKHALE [CCDC89], for which the protein stability index is 5.52 ± 0.28 (treatment: DMSO) and 5.49 ± 0.077 (treatment: MLN4924 1 uM, 8 h).
The corresponding values for KQYAMQRPNDDSLAFLDKIKSVKE [IQUB] are 3.64 ± 0.35 and 3.87 ± 0.3.
The like results for KRRANQKSSAQGPIPWFLPESRSL [PPEF2] were, in that order, 3.49 ± 0.23 and 3.57 ± 0.16.
The corresponding values for KRRGPQRSVDVVVSSVFLLTLSIA [PHTF1] are 2.55 ± 0.32 and 2.33 ± 0.23.
On to KSKLTYMCRVDLRGHMPEWYTKSF [DLC1], for which the protein stability index (treatment: DMSO) stood at 2.68 ± 0.65 and the protein stability index (treatment: MLN4924 1 uM, 8 h) was 2.43 ± 0.29.
The like results for KTTGLEEAAEAETAKDNGEAEDQE [SRPK2] were, in that order, 5.69 ± 0.14 and 5.73 ± 0.24.
The like results for KVEQAKKPSFQSGGRRRPPASSRN [RBMY1A1] were, in that order, 4.628 ± 0.025 and 4.73 ± 0.084.
The corresponding values for KVKKLKNLKTLDSKPGVYTSYKPY [DENND6A] are 2.66 ± 0.28 and 2.81 ± 0.42.
For KVLGHVNNILISAVLPTAFRVAKK [GDAP1], the protein stability index is, setting by setting: (treatment: DMSO) 2.83 ± 0.59; (treatment: MLN4924 1 uM, 8 h) 2.44 ± 1.3.
The corresponding values for KVLQLTVRCEALTGELETLKERCA [CCDC89] are 2.28 ± 0.21 and 2.45 ± 0.27.
The like results for KVTRLKSLALDIDRDAEDQNRYLD [BET1L] were, in that order, 4.44 ± 0.17 and 4.6 ± 0.18.
The like results for KVWDQVKASNPDLKLWEIGKIIGG [SMARCE1] were, in that order, 2.45 ± 0.32 and 2.36 ± 0.23.
For KYKCLLQQLYYTEADYEDDSKIAF [IQUB], the protein stability index amounted to 2.12 ± 0.6 (treatment: DMSO) and 2.02 ± 0.32 (treatment: MLN4924 1 uM, 8 h).
The like results for KYKKAVGLKLKQEKKEAYLKLKQG [WDR88] were, in that order, 2.98 ± 0.87 and 3.58 ± 0.27.
The like results for LAATQAEKAVANFDRTEWVQIRRL [ZC2HC1C] were, in that order, 3.45 ± 0.11 and 3.16 ± 0.37.
The corresponding values for LAAVLVEPKLHTPMYFFLGNLSVL [OR3A1] are 3.56 ± 0.33 and 3.57 ± 0.57.
On to LADPYRSLKAPGARGPGPEGGGGG [JUNB], for which the protein stability index was 4.63 ± 0.53 (treatment: DMSO) and 4.71 ± 0.47 (treatment: MLN4924 1 uM, 8 h).
The corresponding values for LADSDTLSSAEENEPSQAETAVEG [C18orf25] are 5.55 ± 0.33 and 5.54 ± 0.16.
The like results for LAEIRSDLERQNQEYQVLLDVRAR [KRT33B] were, in that order, 3.84 ± 0.25 and 4.02 ± 0.32.
As to LAKQPGVSVNAQTLDGRTPLHLAA [RIPK4], the protein stability index by setting is: (treatment: DMSO) 3.99 ± 0.76; (treatment: MLN4924 1 uM, 8 h) 4.02 ± 0.087.
For the sequence LAMLNAVTEDLRLKDWEHSIALRN [SCARA5], the protein stability index reads like this: (treatment: DMSO) 2.86 ± 0.17; (treatment: MLN4924 1 uM, 8 h) 2.93 ± 0.16.
In the case of LANHTGYIKVDWQRVEKDMKKAKE [FUNDC2], the protein stability index is 4.11 ± 0.21 (treatment: DMSO) and 4.08 ± 0.19 (treatment: MLN4924 1 uM, 8 h).
The corresponding values for LCKDCQVIDGRNVTVTDVDIVFSK [TPPP] are 2.89 ± 0.28 and 3.3 ± 0.47.
The like results for LCLACSAGYYELAQVLLAMHANVE [ANKRD17] were, in that order, 2.96 ± 0.48 and 2.56 ± 0.25.
The like results for LDEQNKRPCRKFLLTGQCDFGSNC [ZMAT5] were, in that order, 3.34 ± 0.42 and 3.323 ± 0.006.
As for LDLIFHVALPTEAEFQLVRDVVLC [TENT5C], the protein stability index runs as follows: (treatment: DMSO) 2.98 ± 0.27; (treatment: MLN4924 1 uM, 8 h) 2.68 ± 0.73.
The like results for LDLLSELYQKQPKIGYHLLYYLRA [INTS3] were, in that order, 3.21 ± 0.65 and 2.74 ± 0.53.
The corresponding values for LDMSQNVSLVTAELSKDAQASAAP [SLC29A1] are 5.16 ± 0.12 and 5.08 ± 0.095.
The corresponding values for LDTVEEVLSVSKILHIPQVTKLCV [KLHL14] are 2.35 ± 0.48 and 2.79 ± 0.43.
Consider LEAVLHCHQMGVVHRDLKPENLLL [CAMK2B], for which the protein stability index is, setting by setting: (treatment: DMSO) 2.22 ± 0.3; (treatment: MLN4924 1 uM, 8 h) 2.15 ± 0.35.
The corresponding values for LECEINTYRSLLESEDCKLPSNPC [KRT33B] are 4.07 ± 0.11 and 4.25 ± 0.23.
The like results for LEEAKKMEMAKFRYILPVYGICRE [RIPK4] were, in that order, 2.26 ± 0.23 and 2.33 ± 0.31.
The like results for LEEEFDSDSGLSLDSSHSPSSLSS [NFE2L1] were, in that order, 5.251 ± 0.052 and 5.22 ± 0.12.
With LEEGENPVPAFQSDGTDEPESKEP [SMG5], the protein stability index reads like this: (treatment: DMSO) 5.65 ± 0.24; (treatment: MLN4924 1 uM, 8 h) 5.65 ± 0.2.
The like results for LEEKCQQPASELLQDVRVNQSRCE [TRIM15] were, in that order, 5.58 ± 0.22 and 5.53 ± 0.5.
The corresponding values for LEGVIDRYQQSKAAALKCQLCEKA [TRIM9] are 3.45 ± 0.32 and 3.78 ± 0.34.
